Source: patent US20030114377A1

Experiments:
[1] = target: soluble CD14 DPRQY deletion mutant (residues 59-63 of SEQ ID NO: 1 deleted) (human) (UniProt P08571); assay: ELISA, mutant CD14 coated, biotinylated mAb; grade = OD as % of wild-type CD14 (++ 51-75%)
[2] = target: soluble CD14 AVEVE deletion mutant (residues 35-39 of SEQ ID NO: 1 deleted) (human) (UniProt P08571); assay: as above
[3] = target: soluble CD14 DDED/PQPD double deletion mutant (residues 9-12 and 22-25 of SEQ ID NO: 1 deleted) (human) (UniProt P08571); assay: ELISA, mutant CD14 coated, biotinylated mAb; grade = OD as % of wild-type CD14 (+++ 76-90%)
[4] = target: soluble CD14 PQPD deletion mutant (residues 22-25 of SEQ ID NO: 1 deleted) (human) (UniProt P08571); assay: as above
[5] = target: soluble CD14 DDED deletion mutant (residues 9-12 of SEQ ID NO: 1 deleted) (human) (UniProt P08571); assay: as above
[6] = target: soluble CD14 DDED/PQPD double deletion mutant (residues 9-12 and 22-25 of SEQ ID NO: 1 deleted) (human) (UniProt P08571); assay: ELISA, mutant CD14 coated, biotinylated mAb; grade = OD as % of wild-type CD14 (++++ >90%)
[7] = target: soluble CD14 DPRQY deletion mutant (residues 59-63 of SEQ ID NO: 1 deleted) (human) (UniProt P08571); assay: as above
[8] = target: soluble CD14 DDED deletion mutant (residues 9-12 of SEQ ID NO: 1 deleted) (human) (UniProt P08571); assay: as above
[9] = target: soluble CD14 PQPD deletion mutant (residues 22-25 of SEQ ID NO: 1 deleted) (human) (UniProt P08571); assay: ELISA, mutant CD14 coated, biotinylated mAb; grade = OD as % of wild-type CD14 (+ 11-50%)
[10] = target: soluble CD14 DDED deletion mutant (residues 9-12 of SEQ ID NO: 1 deleted) (human) (UniProt P08571); assay: as above

| Substance | OD405 as percent of wild-type CD14 OD [2] [%] | OD405 as percent of wild-type CD14 OD [4] [%] | OD405 as percent of wild-type CD14 OD [7] [%] | other results |
| --- | --- | --- | --- | --- |
| anti-CD14 monoclonal antibody MO-2 |  |  |  | OD405 as percent of wild-type CD14 OD [1]: 51 to 75% |
| anti-CD14 monoclonal antibody MEM-18 | 51 to 75 | 76 to 90 |  | OD405 as percent of wild-type CD14 OD [3]: 76 to 90%; OD405 as percent of wild-type CD14 OD [5]: 76 to 90% |
| anti-CD14 monoclonal antibody 63D3 | 51 to 75 | 76 to 90 | > 90 | OD405 as percent of wild-type CD14 OD [6]: > 90%; OD405 as percent of wild-type CD14 OD [8]: > 90% |
| anti-CD14 monoclonal antibody UCHM-1 |  |  | > 90 | OD405 as percent of wild-type CD14 OD [9]: 11 to 50%; OD405 as percent of wild-type CD14 OD [10]: 11 to 50% |
| anti-CD14 monoclonal antibody MY4 |  |  | > 90 |  |
